Measured values published in the supplement of paper PMC7877785.
± gives the uncertainty stated by the source.

Experiment: self-splicing fitness, log relative to wild type (ln ratio); higher = more splicing; Tetrahymena group I intron in knt gene, E. coli kanamycin selection, DiMSum; sequences stand for … in CUCUCU…GGAGGGAAAAGUUAUCAGGCAUGCACCUGGUAGCUAGUCUUUAAACCAAUAGAUUGCAUCGGUUUAAAAGGCAAGACCGUCAAAUUGCGGGAAAGGGGUCAACAGCCGUUCAGUACCAAGUCUCAGGGGAAACUUUGAGAUGGCCUUGCAAAGGGUAUGGUAAUAAGCUGACGGACAUGGUCCUAACCACGCAGCCAAGUCCUAAGUCAACAGAUCUUCUGUUGAUAUGGAUGCAGUUCACAGACUAAAUGUCGGUCGGGGAAGAUGUAUUCUUCUCAUAAGAUAUAGUCGGACCUCUCCUUAAUGGGAGCUAGCGGAUGAAGUGAUGCAACACUGGAGCCGCUGGGAACUAAUUUGUAUGCGAAAGUAUAUUGAUUAGUUUUGGAGUACUCGUGGUCG
In short: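 DiMSum derived fitness as the error-weighted combination of fold changes across replicates, kanamycin versus no kanamycin, normalised to wild type. E. coli BL21(DE3) held the library, which randomised all eight P1ex-region intron nucleotides within the knt kanamycin-resistance gene on pET-22b(+). Six replicate transformations grew overnight at 37°C or 30°C on LB agar with or without 25 μg/mL kanamycin, also containing 100 μg/mL carbenicillin, 50 μM IPTG and 0.2% rhamnose, and pooled colonies were amplicon-sequenced on an Illumina HiSeq 2500.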

Sequence | self-splicing fitness (ln) (30 °C) | self-splicing fitness (ln) (37 °C)
CAAUAGCAAUAUUACGACUU | -3.35 ± 0.24 | -0.264 ± 0.23
GAUAAGCAAUAUUACGUGGU | -4.24 ± 0.19 | -2.35 ± 0.15
UCGCAGCAAUAUUACGGUGC | -4.1 ± 0.24 | -1.62 ± 0.15
GGUCAGCAAUAUUACGGUAA | -0.874 ± 0.071 | -0.111 ± 0.069
GAGGAGCAAUAUUACGUUUU | -2.16 ± 0.13 | -1.56 ± 0.15
GACCAGCAAUAUUACGAUGC | -0.38 ± 0.059 | -0.185 ± 0.072
AACAAGCAAUAUUACGGCAG | -1.53 ± 0.11 | -1.4 ± 0.13
UAUGAGCAAUAUUACGGAGC | -1.38 ± 0.36 | 
UCCUAGCAAUAUUACGCUAG | -3.47 ± 0.44 | 
GGAUAGCAAUAUUACGGACU | -0.129 ± 0.14 | -0.134 ± 0.19
AUGCAGCAAUAUUACGACAA | -0.348 ± 0.075 | -0.366 ± 0.093
AAAUAGCAAUAUUACGGCGU | -0.263 ± 0.071 | -0.0261 ± 0.095
UAUCAGCAAUAUUACGUUGG | -2.48 ± 0.089 | -0.612 ± 0.1
CACGAGCAAUAUUACGUUAG | -2.94 ± 0.16 | -2.64 ± 0.18
CCCCAGCAAUAUUACGAAGC | -4.34 ± 0.31 | -3.28 ± 0.3
CAUGAGCAAUAUUACGCUCG | -2.72 ± 0.17 | -2.68 ± 0.4
GCAGAGCAAUAUUACGUCGU | -2.88 ± 0.18 | -0.722 ± 0.16
AAUGAGCAAUAUUACGUGAC | -3.08 ± 0.37 | -1.25 ± 0.19
AUCGAGCAAUAUUACGAUGG |  | -2.17 ± 0.38
UUAAAGCAAUAUUACGGCAA | 0.101 ± 0.12 | 0.186 ± 0.16
UUCAAGCAAUAUUACGGCUG | -2.62 ± 0.15 | -1.52 ± 0.2
AACAAGCAAUAUUACGCCUC | -1.75 ± 0.14 | -0.437 ± 0.15
CGCCAGCAAUAUUACGCGCA | -1.98 ± 0.13 | -0.948 ± 0.13
AGAAAGCAAUAUUACGUUUG | -2.48 ± 0.14 | -2.24 ± 0.21
UAAUAGCAAUAUUACGGUUG | -0.0942 ± 0.085 | -0.0839 ± 0.091
GAGCAGCAAUAUUACGGUUC | -3.92 ± 0.42 | -1.9 ± 0.38

Sequence | self-splicing fitness (ln) (30 °C) | self-splicing fitness (ln) (37 °C)
UCGAAGCAAUAUUACGGAGC |  | -1.75 ± 0.33
CAGGAGCAAUAUUACGAGGG | -3.21 ± 0.24 | -1.97 ± 0.2
UUACAGCAAUAUUACGGAGG | -2.31 ± 0.22 | -2.1 ± 0.36
CGAGAGCAAUAUUACGACAU | -3.964 ± 0.034 | -2.84 ± 0.046
UCACAGCAAUAUUACGUCGU | -3.62 ± 0.19 | -1.49 ± 0.22
GAUAAGCAAUAUUACGAAAA | -2.98 ± 0.17 | -2.47 ± 0.2
AUCGAGCAAUAUUACGACUG | -2.17 ± 0.13 | -1.64 ± 0.15
UUCGAGCAAUAUUACGAGAC | -0.119 ± 0.49 | 
UCCGAGCAAUAUUACGUCGU | -2.21 ± 0.16 | -1.53 ± 0.18
CCCCAGCAAUAUUACGUCCC | -2.21 ± 0.36 | 
CUAUAGCAAUAUUACGGAAA | -2.82 ± 0.2 | -2.06 ± 0.42
GUGGAGCAAUAUUACGUAAA | -1.5 ± 0.21 | -2.18 ± 0.47
UCAGAGCAAUAUUACGUAGG | -0.836 ± 0.12 | -0.744 ± 0.17
CAGAAGCAAUAUUACGCAAA | -3.57 ± 0.35 | -1.81 ± 0.26
GGGUAGCAAUAUUACGCAAC |  | -2.43 ± 0.44
GCCGAGCAAUAUUACGGCGA | -0.848 ± 0.21 | -1.42 ± 0.24
CACUAGCAAUAUUACGAUGC | -3.76 ± 0.18 | -3.05 ± 0.19
AUCUAGCAAUAUUACGAACA | -1.53 ± 0.14 | -0.645 ± 0.12
UGUUAGCAAUAUUACGCUAA | -2.05 ± 0.4 | 
CUGUAGCAAUAUUACGUGAA |  | -2.71 ± 0.29
AUCGAGCAAUAUUACGUCCA |  | 0.309 ± 0.47
GCAUAGCAAUAUUACGAAAC | -2.18 ± 0.12 | -0.684 ± 0.1
CUGCAGCAAUAUUACGAAAG | -1.42 ± 0.14 | -1.47 ± 0.15
UUGUAGCAAUAUUACGGAGU |  | -2.5 ± 0.36
GGCGAGCAAUAUUACGUGAU | -2.26 ± 0.15 | -1.08 ± 0.14
ACCAAGCAAUAUUACGAACG | -1.61 ± 0.076 | -0.581 ± 0.087

Sequence | self-splicing fitness (ln) (30 °C) | self-splicing fitness (ln) (37 °C)
CCACAGCAAUAUUACGUAGG | -2.62 ± 0.093 | -2.18 ± 0.14
GAUCAGCAAUAUUACGCCUG | -0.866 ± 0.17 | 0.935 ± 0.19
UCUCAGCAAUAUUACGCUCA |  | -1.48 ± 0.43
GUGCAGCAAUAUUACGUAAC | -1.63 ± 0.15 | -0.239 ± 0.14
AUUGAGCAAUAUUACGCUAA | -2.5 ± 0.16 | -1.54 ± 0.16
AUGGAGCAAUAUUACGUGCA | -2.82 ± 0.21 | -1.65 ± 0.16
AACUAGCAAUAUUACGGGAU | -1.53 ± 0.079 | -0.855 ± 0.081
GAUAAGCAAUAUUACGGUAC | -1.92 ± 0.12 | -0.383 ± 0.17
AACCAGCAAUAUUACGACCG | -0.744 ± 0.087 | -0.237 ± 0.14
UAGAAGCAAUAUUACGUCAC | -2.92 ± 0.35 | 
ACACAGCAAUAUUACGUAAU | -2.76 ± 0.085 | -1.73 ± 0.12
UGGGAGCAAUAUUACGAUGA |  | -1.63 ± 0.42
GCCUAGCAAUAUUACGGUAU | -0.978 ± 0.07 | -0.02 ± 0.08
GUUCAGCAAUAUUACGUAGG | -0.609 ± 0.082 | 0.163 ± 0.1
AGCGAGCAAUAUUACGGUCG | -2.52 ± 0.12 | -1.86 ± 0.13
GAUUAGCAAUAUUACGUGUC | -2.86 ± 0.27 | -2.28 ± 0.26
UUAAAGCAAUAUUACGCAUA | -0.633 ± 0.072 | 0.164 ± 0.11
CUCGAGCAAUAUUACGCUAA |  | -2.34 ± 0.36
CCGGAGCAAUAUUACGAAGU | -4.05 ± 0.26 | -1.53 ± 0.23
UGUCAGCAAUAUUACGUAAA | -0.534 ± 0.13 | -0.324 ± 0.16
GUUUAGCAAUAUUACGGACU |  | 1.32 ± 0.45
GGAAAGCAAUAUUACGCUUG | -2.12 ± 0.14 | -1.15 ± 0.21
GCGUAGCAAUAUUACGCAGG | -3.66 ± 0.47 | -3.54 ± 0.33
UAUCAGCAAUAUUACGAGCG | -0.616 ± 0.059 | 0.345 ± 0.088
GUAGAGCAAUAUUACGUCGU | -0.814 ± 0.084 | -0.0553 ± 0.11
GGAAAGCAAUAUUACGGUAG | -3.02 ± 0.2 | -2.98 ± 0.18

Sequence | self-splicing fitness (ln) (30 °C) | self-splicing fitness (ln) (37 °C)
AAAGAGCAAUAUUACGGAAG | -3.76 ± 0.21 | -2.62 ± 0.33
GGGGAGCAAUAUUACGCUUU | -2.18 ± 0.27 | 
AGGGAGCAAUAUUACGCUUU | -2.49 ± 0.45 | -2.48 ± 0.5
GUCAAGCAAUAUUACGGCCU | -3.17 ± 0.22 | -1.34 ± 0.21
AAGAAGCAAUAUUACGAAUG | -2.19 ± 0.13 | -1.66 ± 0.14
AGCAAGCAAUAUUACGUGUU | -3.17 ± 0.18 | -2.64 ± 0.17
CUAAAGCAAUAUUACGAAUC | -4.03 ± 0.14 | -2.46 ± 0.16
GAUAAGCAAUAUUACGUGCC | -0.717 ± 0.1 | -0.548 ± 0.13
UGGUAGCAAUAUUACGCAUG | -1.33 ± 0.1 | 0.872 ± 0.14
UAAUAGCAAUAUUACGUUCG | -0.563 ± 0.11 | 0.133 ± 0.12
CACUAGCAAUAUUACGCCUC |  | -1.72 ± 0.23
AGCCAGCAAUAUUACGAUGU | -2.62 ± 0.16 | -1.32 ± 0.13
UGUGAGCAAUAUUACGUUUU | -3.15 ± 0.27 | -2.98 ± 0.37
UCACAGCAAUAUUACGGUAU | -3.42 ± 0.19 | -3.05 ± 0.18
CCAUAGCAAUAUUACGUCAG | -1.74 ± 0.13 | -1.61 ± 0.15
AUGUAGCAAUAUUACGGGUG | -3.85 ± 0.29 | -2.54 ± 0.18
GAAUAGCAAUAUUACGCUCG | 0.178 ± 0.15 | -0.999 ± 0.16
CAAAAGCAAUAUUACGAUAC | -2.95 ± 0.15 | -2.53 ± 0.2
AUGCAGCAAUAUUACGGGGA | -2.64 ± 0.16 | -2.26 ± 0.18
AAGGAGCAAUAUUACGUUAU | -2.99 ± 0.2 | -1.59 ± 0.22
UAAAAGCAAUAUUACGCUGA | -2.35 ± 0.2 | -0.613 ± 0.14
GGUAAGCAAUAUUACGAAAA | -2.86 ± 0.43 | -0.969 ± 0.34
UUCGAGCAAUAUUACGGAUG | -3.22 ± 0.38 | -2.86 ± 0.32
